Source: the nanobody polyreactivity screen of Harvey et al. (2022)

Experiment: yeast display, Sf9 membrane polyspecificity reagent, FACS + sequencing; frameworks hold sequencing errors
How it was run: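 Nanobodies from a synthetic yeast display library (Saccharomyces cerevisiae BJ5465), induced 36–48 hours with galactose, were stained 1 hour at 4 °C with 10% biotinylated, detergent-solubilized Sf9 membrane reagent, enriched on streptavidin microbeads, then FACS-sorted. Anti-HA (expression) and streptavidin (reagent binding) fluorescence set low and high (top ~1%) gates. Polyreactivity labels come from the gate of origin. Genes were colony-PCR amplified, MiSeq 2 × 250 sequenced and filtered by CDR length.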

Sequence	polyreactivity (PSR sort gate)
QVQLVESGGGLVQAGGSLRLSCAASGSTFWYNDMGWYRQAPGKESELVAAITWTGDGTYYADTVKGRFTISRDNAKNTVYLQMNSLKPEDTAVYYCAAAYFQWSTSIVGLDAWYDYWGQGTQVTVSS	low polyreactivity
QVQLVESGGGLVQAGGSLRLSCAASGRTFYYYAMGWYRQAPGKERELVATITKSSGSTSYADSVKGRFTISRDNAKNTVYLQMNSLKPEDTAVYYCAKVFRSGGVYRYDYWGQGTQVTVSS	high polyreactivity
QVQLVESGGGLVQAGGSLRLSCAASGFIFWDYALGWYRQAPGKEREFVANISRSVGSTYYADSVKGRFTISRDNAKNTVYLQMYTLKPEDTAVYYCAAVTWGEGFDYWGQGTQVTVSS	low polyreactivity
QVQLVESGGGLVQAGGSLRLSCAASGSIFEVYAMGWYRQAPGKERELVAAINYTGGSTYYADSVKGRFTISRDNAKNTVYLQMNSLKPEDTAVYYCAVPRGVASLQKVEFGYWGQGTQVTVSS	low polyreactivity
QVHLVESGGGLVQAGGSLRLSCAASGSTFGYYAMGWYRQAPGKEREFVAAISSSGGSTYYADSVKGRFTISRDNAKNTVYLQMNSLKPEDTAVYYCARVGFPGFYWGQGTQVTVSS	high polyreactivity
QVQLVESGGGLVQAGGSLRLSCAASGSTFSIYARGWYRPAPGKERELVAAIRWSGGRTYYADSVKGRFTISRDNAKNTVYLQMNSLKPEDTAVYYCAAESTGSGYDYWGQGTQVTVSS	high polyreactivity
QDQLVESGGGLVQAGGSLSLSCAASGRNFFHNAMGWYRQAPGKERELVASITSGDGTYYADSVKGRFTISRDNAKNTVYLQMNSMKPEDTEVYSCAAEPGSIAYYYTRVGLYYWGQGTQVTVSS	low polyreactivity
QVQLVESGGGLVQAGGSLRLSCAASGRIFGGYTMGWYRQAPGNERELVAAINSGGSTYYADSVKGRFTISRDNAKITVYLQMNSLKPEDTAVYYCAKVRSYFGKYGYGYWGQGTQVTVSS	high polyreactivity
QVQLVESGGGLVQAGGSLRLICDASGRTFGPYVMRLYRQAPGKERELVASISSADSRYYADSVKGRFTISRDNAKNTVYLQMNSLKPEDTAVYYCAAPSVGYYDPTDFDYWGQGTQVTVSS	low polyreactivity
QVQLVESGGGLVQAGGSLRLSCAASGRIFSFNARGWYRPAPGKETELVAGITYGGNTYYADSVKGRFTISRDNAKNTVYLQMNSLKPEDTAVYYCAADGVYDQNLYGFWGQGTQVTVSS	low polyreactivity
QVQLVESGGGLVQAGGSLRLSCAASGRIFYYNAMGWYRQAPGKERELVAGITSRGRSTYADSVKGRFTISRDNAKNTVYLQMNSLKPEDTAVYYCAAVYRLWGKDYDYWGQGTQVTVSS	high polyreactivity
QVQHVESGRGLVQAGGSLRLSCPASGSTFSYYAMGWYRQAPGKERELVASISSTTGSTYYADSVKGRFTISRDNAKNTVYVKMNSVKPEDTAVYYCAADIPPGGGDYWGQGSQVTVSS	low polyreactivity
QVQHVESGGGLVQAGGSLRLSCAASGSIFPLNAMGWSRQAPGQVSELVASISTGSSTYYADSVKGRFTISRDNAKNTVYLQMISLKPEDTAVYFCAVDRVLFSDFNRGYEYNYWGQGTQVTVSS	low polyreactivity
QFQLVESGGGLVQAGGSLRLSCAASGFIFGLYAMGWYRQAPGKERELVAAISRSGGSTYYADSVKGRFTISRDNAKNTVYLQMNSLKPEDTAVYYCNARYSWPRANWYDYWGQGTQVTVSS	high polyreactivity
QVQLVESGGGLVQAGGSLRLSCAASGPTNAMGWYRQAPGKERELVAAITKSGGSTYYADSVKGRFTISRDNAKNTVYLLMNSLKPEDTAVYYCALILRHTAYYYWGQGTQVTVSS	high polyreactivity
QVKLVESGGGLVQAGGSLRLSSADSGFIFRRYAMGWYRQAPGKERELVAAINYSGGSTYYADSVKGRFTISRDHAKNTVYLQMNSPKPEYTAVYYCNAYGLRYYEYDYWGQGTQVTVSS	low polyreactivity
QVQLVETGGGLVQAGGSLRLSCAASGRIFSVYAMGWYRQAPGKERDLVAGITSSGGSTYYADSVKGRFTISRDNAKNTVYLQMISLKPEDTAGYYCATRQVSRLYPYRYNYWGQGTQVTVSS	high polyreactivity
QVQLVESGAGLVQAGGSLRLSCAASGYIFRQYAMGRYRQAPGTEREFVAAISQTGGSTYYADSVKRRFTLSRDNAKNTVYFQMNSLKPVDTAVYYCAARYRGQRYRKLDYWGQGTQVTVSS	high polyreactivity
QVQLVESGGGLVQAGGSLRLSCAASGRTFPVYAMGWYRQAPGKEREFVAAISRRGGSTYYADSVKGRFTISRDNAKNTVYLQMNSLKPQDTAVYYCAKVYYLYGAQHNPGRYDYWGQGTQLTVSS	high polyreactivity
QVQLVESGGGLVQAGGSLRLSCAASGSTLIANAMGWYRQAPGKERELVAGITYRGGDITTYADSVKGRFTISRDNAKNTVYLQKTSLKPEDTAVYYCAARVVWPTWARGGYWGQGTQVTVSS	low polyreactivity
QVQLVESGAGLVQAGGSLRLSCAASGFNFRENAMGWYRQAPGKERELVAAISRSGGSTYYADSVKGRFTISRDNAKNTVYLQMNSLKPEDTAVYYCAAPKDYDYWGQGTKVTVSS	low polyreactivity

Sequence	polyreactivity (PSR sort gate)
QVQLVESGGGLVQAGGSLRLSCAASGFIILIYAMGWYRQAPGKERELVATIRYSGGRTYYADSVKGRFTISRDNAKNTVFLQMNSLKPEDTAVDYCAADGYPTLYDYWGQGTQVTVSS	high polyreactivity
QVQLVESGGVLVQAGGSLRLSCAASGITFGDNAMGWYRQAPGKERELVAAITTSVDSTYYADSVKGRFTISRDNAKNTVYLQMNSLKPEDTAVYYCAVAFVQFTQYDYWGQGTQVTVSS	low polyreactivity
QVHLVESGGVLVQAGGSLRLSCAASGRIFYRYAMGWYRQAPGKERELVAAITHRGGSTYYADSVKGRFTISRDNAKNTVYLQMNSLKPEDTAVYYCAGRITEAVADYVGHKPYDYWGQGTQVTVSS	low polyreactivity
QVQLVESGGGLVQAGGSLRLICAASGGIFVYYAMGWYRQAPGKERELVAAISSGGTTNYADSVKGRFTISRDNAKNTVYLQMNSLKPEDTAVYYCAIYVSWPLYYYWGQCTQVTVSS	low polyreactivity
QVQLVESGGGLVQAGGSLRLSCAASGRTFFYYAMGWYRQAPGKDRELVAAISWGGGRTYYADSVKGRFTISRDNAKNTVYLQMNSLKPEETAVYYCAAGVYTGQHEYDYWGQGTQVTVSS	low polyreactivity
QVHLVESGGGLVQAGGRLRLSCAASGGTFYYIAMGWYRQAPGKERELVAAISWSGVSTSYADTVKGRFTISRDNEKNTVYLQMNSLKPEDTAVYYCAAGPFYYTGFEGDYWGQGTQVTVSS	high polyreactivity
QVQLVESGGGLFQAGGSLRLSCAASGSTFRFNAKGWYRQAPGKERQFVAAIRFTGGSTYYADSVKGRFTISRDNAKNTVYLQMNSLKPEDTAVYYCINADEYSTVEYDYWGQGTQVSVSS	low polyreactivity
QFQLLESGGGLVQAGSSLRLSCAASGSTFKYYTMGWYRQAPGKERELVATIRGAGTTYADSVKGRFTISRDNAKHTVYLQMNSLKPEDTAVYYCARLPRGDMDYWGQGTQVTVSS	low polyreactivity
QVQLVESGGGLVQAGGSLRLSCAASGSILVPYSMGWYRQAPGKERELVAAISWGGGSTYYADSVKGRFTISRDNAKNTVYLQMNSLKPEDTAVYYCAADFGYYDYDYWGQGTQVTVSS	low polyreactivity
QVQLVESGGGLVQAGGSLRLSCAASGGIFQENAMGWYRPAPGKERELVATITRSTGSTYYADSVKGRFTISRDNAKNTVYLQMNSLKPEDTAVYYCAARRRSQYYRYAYKYDYWGQGTQVTVSS	high polyreactivity
QVQLVESGGGLVQAGGSLRLSCAASGSILDIYAMGWYRQAPGKERELVAGISTSGGSTYYADSVKGRFTISRDNAKNTVYLQMNSLNPEDTAVYYCAKDYGYQGLTRTLYCAYLEYDYWGQGTQVTVSS	low polyreactivity
QVQLVESGGGLVQAGGSLRLSCAASGRIFDYNAMGWYRQAPGKERELVAAISVSGGSTYYADSVKGRFTISRDNAKNTVYLQMNSLKPEDTAVYYCNAGYILDSFRYDHWGHGTQVTVSS	low polyreactivity
QVQLVESGGGLVQAGGSLRLSCAASGSTFRVNVMGWYRQATGKERELVAAITTSGGSTYYADSVKGRFSISRDNAQNTVYFQMNSLKPEDTAVYYCNTTYPSGWGPDMDYWGQGTQVTVSS	low polyreactivity
QVQLVESGGGLVQAGGSLRLSCAASGSNFGEYAMGWYIQAPGKERELVAAISYRGGSTYYADSVKGRFTISRDNAKNTVYLQMNSLKPEDTAVYYCNRDRRRRGAYGRPGGDHWGQGTQVTVSS	high polyreactivity
QVQLVESGGGLVQAGGSLRLSCAASGFIFYRYAMGWYRQAPGKERELVARISWNGGITYYADSVKGRFTISRDNAKNTVYLQMNILKPEDTAVYYCNKPDPYGLYTYEYWGQGTQVTVSS	low polyreactivity
QVQLVESGGGLVQAGGSLRLSCSASGSIIGHNAMGWYRQAPGKEREIVAAITWRGSNTYYADSVKGRFTISRDNAKNTVYLQMNSLKPEDTAVYYCAAEFYYRTQWYYYWGQGTQVTVSS	high polyreactivity
QVQLVESGGGLVQAGGSLRLSCAASGSTFGINDMGWSRQAPGKEREFVAAISSTTDSTRYADSVKGRFTISRDNAKNTVYLQMNSLKPEDTAVYYCAAAPQFTFGVGYWGQGTQVTVSS	low polyreactivity
QVQLVETGGGLVQAGGSLRLSCAASGRTFGPYVMGWYRQAPGKERELVAGITSGGSTNYADSVKGRFTISRDNAKNTVYLQMNSLKPEDTAVYYCNADYVIYFGLYEYWGQGTQVTVSS	low polyreactivity
QVQLVESGGGLVQAGGSLRLTCAASGFIFRYYAMGWYRQAPGKERELVAAISRSGGSTYYADSVKGRFTISRDNAKNTVYLQMNSLKPEDTAVYYCAAKDGRSYYDRTPMDYWGQGTQVTVSS	low polyreactivity
QVQLVESGGGLVQAGGSLRLSCAASGIIFYGYAMGWYRQAPGKERELVATISTGGRTNYADSVKGRFTISRDNAKNTVYLQMNSLKPEDTAVYYCAARSFWTYRSGGPSDYYYWGQGTQVTVSS	high polyreactivity
